According to publication PMC10397247:
Read-outs that look alike come from different tables or passages of the source.

Legend:
[1] = molecular target: T1, P1-AA; test: two-hybrid library CCmax;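 note: natural log of median RNA to DNA barcode read ratio; higher means stronger binding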
T1 chain: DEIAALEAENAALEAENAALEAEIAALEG

[2] = molecular target: T2, 4H_BCR; test: two-hybrid library CCmax;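 note: natural log of median RNA to DNA barcode read ratio; higher means stronger binding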
T2 chain: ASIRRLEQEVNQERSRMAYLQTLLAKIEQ

[3] = molecular target: T3, P10-AA; test: two-hybrid library CCmax;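 note: natural log of median RNA to DNA barcode read ratio; higher means stronger binding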
T3 chain: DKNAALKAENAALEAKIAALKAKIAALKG

[4] = molecular target: T4, AP4-AA; test: two-hybrid library CCmax;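 note: natural log of median RNA to DNA barcode read ratio; higher means stronger binding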
T4 chain: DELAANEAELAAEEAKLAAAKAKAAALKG

[5] = molecular target: T5, P2-AA; test: two-hybrid library CCmax;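 note: natural log of median RNA to DNA barcode read ratio; higher means stronger binding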
T5 chain: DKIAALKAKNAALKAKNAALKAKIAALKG

[6] = molecular target: T6, AP1-AA; test: two-hybrid library CCmax;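 note: natural log of median RNA to DNA barcode read ratio; higher means stronger binding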
T6 chain: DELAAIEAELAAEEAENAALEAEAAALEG

[7] = molecular target: T7, P4-AA; test: two-hybrid library CCmax
T7 chain: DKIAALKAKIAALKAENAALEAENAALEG

[8] = molecular target: T8, AP3-AA; test: two-hybrid library CCmax
T8 chain: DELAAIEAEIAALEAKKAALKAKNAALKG

[9] = molecular target: T9, AP5-AA; test: two-hybrid library CCmax
T9 chain: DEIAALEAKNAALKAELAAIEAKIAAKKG

[10] = molecular target: T10, P8-AA; test: two-hybrid library CCmax
T10 chain: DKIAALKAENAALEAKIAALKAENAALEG

[11] = molecular target: T11, AP7-AA; test: two-hybrid library CCmax
T11 chain: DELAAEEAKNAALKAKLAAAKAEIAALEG

[12] = molecular target: T12, P12-AA; test: two-hybrid library CCmax
T12 chain: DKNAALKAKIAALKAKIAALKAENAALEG

[13] = molecular target: T13, AP6-AA; test: two-hybrid library CCmax
T13 chain: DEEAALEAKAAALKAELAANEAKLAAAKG

[14] = molecular target: T14, P3-AA; test: two-hybrid library CCmax
T14 chain: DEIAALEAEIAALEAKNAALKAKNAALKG

[15] = molecular target: T15, AP8-AA; test: two-hybrid library CCmax
T15 chain: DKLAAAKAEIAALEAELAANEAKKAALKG

[16] = molecular target: T16, AP2-AA; test: two-hybrid library CCmax
T16 chain: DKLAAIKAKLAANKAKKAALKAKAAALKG

[17] = molecular target: T17, P9-AA; test: two-hybrid library CCmax
T17 chain: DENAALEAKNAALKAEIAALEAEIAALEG

[18] = molecular target: T18, P7-AA; test: two-hybrid library CCmax
T18 chain: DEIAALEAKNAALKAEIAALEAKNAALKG

[19] = molecular target: T19, P11-AA; test: two-hybrid library CCmax
T19 chain: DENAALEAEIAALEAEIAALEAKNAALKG

[20] = molecular target: T20, O16; test: two-hybrid library CC0; details: mean of both orientations
T20 chain: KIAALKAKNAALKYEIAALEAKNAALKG

[21] = molecular target: T21, O4; test: two-hybrid library CC0; details: mean of both orientations
T21 chain: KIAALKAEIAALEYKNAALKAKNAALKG

[22] = molecular target: T22, O2; test: two-hybrid library CC0; details: mean of both orientations
T22 chain: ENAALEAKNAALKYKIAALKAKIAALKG

[23] = molecular target: T23, O3; test: two-hybrid library CC0; details: mean of both orientations
T23 chain: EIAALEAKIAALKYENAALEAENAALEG

[24] = molecular target: T24, O6; test: two-hybrid library CC0; details: mean of both orientations
T24 chain: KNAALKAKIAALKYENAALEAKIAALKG

[25] = molecular target: T25, O5; test: two-hybrid library CC0; details: mean of both orientations
T25 chain: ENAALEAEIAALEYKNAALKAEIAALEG

[26] = molecular target: T26, O8; test: two-hybrid library CC0; details: mean of both orientations
T26 chain: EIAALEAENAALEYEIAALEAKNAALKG

[27] = molecular target: T27, O7; test: two-hybrid library CC0; details: mean of both orientations
T27 chain: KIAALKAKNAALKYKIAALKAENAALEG

[28] = molecular target: T28, O9; test: two-hybrid library CC0; details: mean of both orientations
T28 chain: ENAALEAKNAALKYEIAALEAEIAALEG

[29] = molecular target: T29, 4H2586-bN; test: two-hybrid library CCNG1
T29 chain: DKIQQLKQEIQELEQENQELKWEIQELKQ

[30] = molecular target: T30, 4H3010-bN; test: two-hybrid library CCNG1
T30 chain: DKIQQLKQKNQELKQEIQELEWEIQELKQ

[31] = molecular target: T31, 4H346-bN; test: two-hybrid library CCNG1
T31 chain: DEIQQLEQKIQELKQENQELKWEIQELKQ

[32] = molecular target: T32, 4H349-bA; test: two-hybrid library CCNG1
T32 chain: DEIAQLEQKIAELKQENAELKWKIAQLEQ

[33] = molecular target: T33, 4H3926-bN; test: two-hybrid library CCNG1
T33 chain: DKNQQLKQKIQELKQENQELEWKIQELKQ

[34] = molecular target: T34, 4H953-bN; test: two-hybrid library CCNG1
T34 chain: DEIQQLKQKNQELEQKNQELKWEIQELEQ

[35] = molecular target: T35, 4H754-bN; test: two-hybrid library CCNG1
T35 chain: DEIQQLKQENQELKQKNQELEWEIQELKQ

[36] = molecular target: T36, 4H2673-bN; test: two-hybrid library CCNG1
T36 chain: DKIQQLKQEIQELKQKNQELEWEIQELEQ

[37] = molecular target: T37, 4H457-bN; test: two-hybrid library CCNG1
T37 chain: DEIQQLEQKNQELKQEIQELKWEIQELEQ

[38] = molecular target: T38, 4H683-bN; test: two-hybrid library CCNG1
T38 chain: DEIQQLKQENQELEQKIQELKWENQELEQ

[39] = molecular target: T39, 4H4073-bN; test: two-hybrid library CCNG1
T39 chain: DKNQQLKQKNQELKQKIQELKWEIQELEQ

[40] = molecular target: T40, 4H3112-bN; test: two-hybrid library CCNG1
T40 chain: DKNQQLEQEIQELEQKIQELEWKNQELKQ

[41] = molecular target: T41, 4H855-bN; test: two-hybrid library CCNG1
T41 chain: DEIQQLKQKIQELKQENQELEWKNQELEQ

[42] = molecular target: T42, 4H968-bN; test: two-hybrid library CCNG1
T42 chain: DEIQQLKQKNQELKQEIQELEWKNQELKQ

[43] = molecular target: T43, 4H2627-bN; test: two-hybrid library CCNG1
T43 chain: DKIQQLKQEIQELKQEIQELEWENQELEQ

[44] = molecular target: T44, 4H575-bN; test: two-hybrid library CCNG1
T44 chain: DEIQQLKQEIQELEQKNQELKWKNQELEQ

[45] = molecular target: T45, 4H780-bN; test: two-hybrid library CCNG1
T45 chain: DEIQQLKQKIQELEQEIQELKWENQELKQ

[46] = molecular target: T46, 4H918-bN; test: two-hybrid library CCNG1
T46 chain: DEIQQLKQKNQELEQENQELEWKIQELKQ

[47] = molecular target: T47, 4H797-bN; test: two-hybrid library CCNG1
T47 chain: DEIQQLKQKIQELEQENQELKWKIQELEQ

[48] = molecular target: T48, 4H3427-bN; test: two-hybrid library CCNG1
T48 chain: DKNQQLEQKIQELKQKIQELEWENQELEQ

[49] = molecular target: T49, 4H2702-bN; test: two-hybrid library CCNG1
T49 chain: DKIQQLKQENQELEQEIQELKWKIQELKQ

B1: 4H_APH4 (peptide)
chain: KRLKQIEKRLQAKEWEKAQLRKELQALRK
For B1, the interaction score [1] was -2.2, the interaction score [2] was -1.95 and the interaction score [3] was -1.38. For the same binder, the interaction score ([4]; mean of both orientations) was -1.78, the interaction score [5] was -1.88 and the interaction score ([6]; mean of both orientations) was -1.81. It also gave an interaction score [7] of -2.31, an interaction score [8] of -1.44 and an interaction score [9] of -1.61. The interaction score [10] was -2.2, the interaction score [11] was -2.06 and the interaction score [12] was -2.07. The interaction score [13] was -2.8, the interaction score [14] was -1.05 and the interaction score [15] was -1.39. The interaction score [16] was -2.2, the interaction score [17] was -1.79 and the interaction score [18] was -1.7. For the same binder, the interaction score [19] was -1.36.

B2: O16 (peptide)
chain: KIAALKAKNAALKYEIAALEAKNAALKG
With B2 the interaction score [20] was -2.76, the interaction score [21] was -2.71 and the interaction score [22] was -2.67. It also gave an interaction score [23] of -2.69, an interaction score [24] of -1.77 and an interaction score [25] of -2.68. The interaction score [26] was 0.382, the interaction score [27] was -2.48 and the interaction score [28] was -2.65.

B3: 4H_APH3 (peptide)
chain: KRAKQLRKRLQALEWQLAQIRKELQAAEK
B3 was tested, and the interaction score [1] was -1.41, the interaction score [2] was -1.42 and the interaction score [3] was -0.731. The interaction score [4] was -1.76, the interaction score [5] was -1.85 and the interaction score [6] was -1.7. For the same binder, the interaction score [7] was -2.3, the interaction score [9] was -0.968 and the interaction score [10] was -1.41. For the same binder, the interaction score [11] was -1.94, the interaction score [12] was -1.53 and the interaction score [13] was -2.3. It also gave an interaction score [14] of -1.01, an interaction score [15] of -0.758 and an interaction score [16] of -1.83. The interaction score [17] was -0.77, the interaction score [18] was -1.07 and the interaction score [19] was 0.988.

B4: 4H1831-bN (peptide)
chain: DENQQLKQKIQELEQKIQELEWKNQELEQ
With B4 the interaction score [29] was -0.466, the interaction score [30] was -0.741 and the interaction score [31] was 0.142. The interaction score [32] was -1.73, the interaction score [33] was -0.39 and the interaction score [34] was -0.677. For the same binder, the interaction score [35] was -0.46, the interaction score [36] was -0.269 and the interaction score [37] was -1.9. For the same binder, the interaction score [38] was -2.14, the interaction score [39] was 0.223 and the interaction score [40] was -0.567. The interaction score [41] was -0.282, the interaction score [42] was -0.157 and the interaction score [43] was 1.7. For the same binder, the interaction score [44] was -0.248, the interaction score [45] was -1.02 and the interaction score [46] was -0.624. For the same binder, the interaction score [47] was -0.203, the interaction score [48] was -0.445 and the interaction score [49] was -0.111.
